What all share (test): ELISA
Experiment [1] has as its target microtubules / purified porcine brain tubulin (porcine).
Experiment [2] shares this target. The source holds these as a separate data set.
Experiment [3] concerns the target GST-PEX14-NTD (human) (UniProt O75381).

Like-named read-outs stand apart in the source and are kept apart here.

Chain of GST-PEX14-NTD (human) (O75381 1-80): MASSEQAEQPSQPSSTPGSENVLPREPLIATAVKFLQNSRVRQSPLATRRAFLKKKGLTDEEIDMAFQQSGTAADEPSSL

By Kd is commonly meant a measure of binding affinity in units of concentration. A higher Kd goes with lower affinity. In the case of “GST-PEX14-NTD (from UniProt O75381 1-80) (domain or fragment)”, the Kd is 0.7 to 2.3 nM in experiment [1] and 2.1 nM in experiment [2].

On to “His-PEX14-NTD (from UniProt O75381 1-80) (domain or fragment)”, for which, in experiment [2], the fold weaker affinity than GST-PEX14-NTD/MT is > 100 fold.

The term IC50 denotes the concentration that inhibits the measured activity by half. A lower IC50 goes with higher potency. “full-length His6-TEV-PEX5S (from UniProt P50542-2 1-602) (natural protein)” came in with a half-maximal inhibitory concentration (IC50) in experiment [3] of 1200 nM.

In experiment [2], “monomeric His-tagged Kif5B kinesin motor domain (domain or fragment)” had a Kd of 56.6 nM.

The record behind these values is doi:10.1101/2020.07.23.218024.
